Experimental data taken from paper PMC4039371 (Molecular Systems Biology, 2013).

Biological target: T1, GST-Cdc14 (S. cerevisiae, UniProt Q00684 1-551)
T1 sequence (looked up): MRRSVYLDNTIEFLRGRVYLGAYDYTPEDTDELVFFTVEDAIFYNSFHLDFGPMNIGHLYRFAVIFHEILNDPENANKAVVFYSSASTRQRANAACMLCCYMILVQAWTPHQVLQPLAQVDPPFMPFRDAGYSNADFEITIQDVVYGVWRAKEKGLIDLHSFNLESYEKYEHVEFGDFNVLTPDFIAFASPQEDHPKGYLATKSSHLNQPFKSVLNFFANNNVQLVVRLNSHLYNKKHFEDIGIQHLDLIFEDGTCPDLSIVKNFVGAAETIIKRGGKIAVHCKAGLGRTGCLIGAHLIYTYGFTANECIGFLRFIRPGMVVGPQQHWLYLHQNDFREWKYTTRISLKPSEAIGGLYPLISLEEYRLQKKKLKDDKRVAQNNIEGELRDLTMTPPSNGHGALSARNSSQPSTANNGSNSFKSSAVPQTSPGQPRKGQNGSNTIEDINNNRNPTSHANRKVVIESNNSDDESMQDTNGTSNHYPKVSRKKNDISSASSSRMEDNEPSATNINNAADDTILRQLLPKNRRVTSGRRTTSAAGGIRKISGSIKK
Assay: pull-down

binding result: binds
B1: recombinant Ubc9 protein (enzyme, S. cerevisiae, UniProt P50623 1-157, looked up)
chain: MSSLCLQRLQEERKKWRKDHPFGFYAKPVKKADGSMDLQKWEAGIPGKEGTNWAGGVYPITVEYPNEYPSKPPKVKFPAGFYHPNVYPSGTICLSILNEDQDWRPAITLKQIVLGVQDLLDSPNPNSPAQEPAWRSFSRNKAEYDKKVLLQAKQYSK
